Results: patent US20260125457A1 (Janssen / Centocor, published 2026)

B1: C3CRB133 CALRmut x CD3 bispecific antibody (bispecific antibody, human IgG1, kappa, L234A L235A)
scFv: DIQMTQSPSSLSASVGDRVTITCRARQSIGTAIHWYQQKPGCAPKLLIKYASESISGVPSRFSGSGSGTDFTLTISSLQPEDFATYYCQQSGSWPYTFGQGTKLEIKGGGSGGSGGCPPCGGSGGEVQLVESGGGLVKPGGSLRLSCAASGFTFSRYNMNWVRQAPGKGLEWVSSISTSSNYIYYADSVKGRFTFSRDNAKNSLDLQMSGLRAEDTAIYYCTRGWGPFDYWGCGTLVTVSSEPKSSDKTHTCPPCPAPEAAGGPSVFLFPPKPKDTLMISRTPEVTCVVVSVSHEDPEVKFNWYVDGVEVHNAKTKPREEQYNSTYRVVSVLTVLHQDWLNGKEYKCKVSNKALPAPIEKTISKAKGQPREPQVYTLPPSREEMTKNQVSLWCLVKGFYPSDIAVEWESNGQPENNYKTTPPVLDSDGSFFLYSKLTVDKSRWQQGNVFSCSVMHEALHNHYTQKSLSLSPGK
heavy: DIQMTQSPSTLSASVGDRVTITCQASQSLYNNKNLAWYQQKPGCAPKLLIYYASALASGVPSRFSGSGSGTEFTLTISSLQPDDFATYYCQGEFNCNSADCNSFGGGTKVEIKGGGSGGSGGCPPCGGSGGQVQLVQSGAEVKKPGASVKVSCKASGFSLSSYAMSWVRQAPGQGLEWMGVIDSGGTTYYAQKFQGRVTMTRDTSTSTVYMELSSLRSEDTAVYYCARESYAGYDYYGHPIPYGMEPWGCGTLVTVSSGGGGSGGGGSEVQLLESGGGLVQPGGSLRLSCAVSGIDLSNNAISWVRQAPGKGLEYVGVIGNTGDTYYADSAKGRFTISRDSSKTTLYLQMNSLRAEDTAVYFCVRGPPSYSSSVKNIWGQGTLVTVSSASTKGPSVFPLAPSSKSTSGGTAALGCLVKDYFPEPVTVSWNSGALTSGVHTFPAVLQSSGLYSLSSVVTVPSSSLGTQTYICNVNHKPSNTKVDKKVEPKSCDKTHTCPPCPAPEAAGGPSVFLFPPKPKDTLMISRTPEVTCVVVSVSHEDPEVKFNWYVDGVEVHNAKTKPREEQYNSTYRVVSVLTVLHQDWLNGKEYKCKVSNKALPAPIEKTISKAKGQPREPQVYTLPPSREEMTKNQVSLSCAVKGFYPSDIAVEWESNGQPENNYKTTPPVLDSDGSFFLVSKLTVDKSRWQQGNVFSCSVMHEALHNRFTQKSLSLSPGK
light: DIQMTQSPSSVSASVGDRVTITCQSSQSVYNNNWLSWLQQKPGKAPKRLIYDASKLESGVPSRFSGSGSGTDFTLTISSVQPEDAATYYCAGGFTGNVYTFGGGTKVEIKRTVAAPSVFIFPPSDEQLKSGTASVVCLLNNFYPREAKVQWKVDNALQSGNSQESVTEQDSKDSTYSLSSTLTLSKADYEKHKVYACEVTHQGLSSPVTKSFNRGEC
notes: Chain B heavy: CALRB1114 spFv N-terminal of the CALRB421 heavy chain
B2: C3CRB135 CALRmut x CD3 bispecific antibody (bispecific antibody, human IgG1, kappa, L234A L235A)
heavy: EVQLLESGGGLVQPGGSLRLSCAVSGIDLSNNAISWVRQAPGKGLEYVGVIGNTGDTYYADSAKGRFTISRDSSKTTLYLQMNSLRAEDTAVYFCVRGPPSYSSSVKNIWGQGTLVTVSSASTKGPSVFPLAPSSKSTSGGTAALGCLVKDYFPEPVTVSWNSGALTSGVHTFPAVLQSSGLYSLSSVVTVPSSSLGTQTYICNVNHKPSNTKVDKKVEPKSCDKTHTCPPCPAPEAAGGPSVFLFPPKPKDTLMISRTPEVTCVVVSVSHEDPEVKFNWYVDGVEVHNAKTKPREEQYNSTYRVVSVLTVLHQDWLNGKEYKCKVSNKALPAPIEKTISKAKGQPREPQVYTLPPSREEMTKNQVSLSCAVKGFYPSDIAVEWESNGQPENNYKTTPPVLDSDGSFFLVSKLTVDKSRWQQGNVFSCSVMHEALHNRFTQKSLSLSPGKGGGGSGGGGSDIQMTQSPSTLSASVGDRVTITCQASQSLYNNKNLAWYQQKPGCAPKLLIYYASALASGVPSRFSGSGSGTEFTLTISSLQPDDFATYYCQGEFNCNSADCNSFGGGTKVEIKGGGSGGSGGCPPCGGSGGQVQLVQSGAEVKKPGASVKVSCKASGFSLSSYAMSWVRQAPGQGLEWMGVIDSGGTTYYAQKFQGRVTMTRDTSTSTVYMELSSLRSEDTAVYYCARESYAGYDYYGHPIPYGMEPWGCGTLVTVSSH
light: DIQMTQSPSSVSASVGDRVTITCQSSQSVYNNNWLSWLQQKPGKAPKRLIYDASKLESGVPSRFSGSGSGTDFTLTISSVQPEDAATYYCAGGFTGNVYTFGGGTKVEIKRTVAAPSVFIFPPSDEQLKSGTASVVCLLNNFYPREAKVQWKVDNALQSGNSQESVTEQDSKDSTYSLSSTLTLSKADYEKHKVYACEVTHQGLSSPVTKSFNRGEC
scFv: DIQMTQSPSSLSASVGDRVTITCRARQSIGTAIHWYQQKPGCAPKLLIKYASESISGVPSRFSGSGSGTDFTLTISSLQPEDFATYYCQQSGSWPYTFGQGTKLEIKGGGSGGSGGCPPCGGSGGEVQLVESGGGLVKPGGSLRLSCAASGFTFSRYNMNWVRQAPGKGLEWVSSISTSSNYIYYADSVKGRFTFSRDNAKNSLDLQMSGLRAEDTAIYYCTRGWGPFDYWGCGTLVTVSSEPKSSDKTHTCPPCPAPEAAGGPSVFLFPPKPKDTLMISRTPEVTCVVVSVSHEDPEVKFNWYVDGVEVHNAKTKPREEQYNSTYRVVSVLTVLHQDWLNGKEYKCKVSNKALPAPIEKTISKAKGQPREPQVYTLPPSREEMTKNQVSLWCLVKGFYPSDIAVEWESNGQPENNYKTTPPVLDSDGSFFLYSKLTVDKSRWQQGNVFSCSVMHEALHNHYTQKSLSLSPGK
notes: Chain A heavy: CALRB421 heavy chain with CALRB1114 spFv at the C-terminus
B3: C3CRB134 CALRmut x CD3 bispecific antibody (bispecific antibody)
scFv: DIQMTQSPSSLSASVGDRVTITCRARQSIGTAIHWYQQKPGCAPKLLIKYASESISGVPSRFSGSGSGTDFTLTISSLQPEDFATYYCQQSGSWPYTFGQGTKLEIKGGGSGGSGGCPPCGGSGGEVQLVESGGGLVKPGGSLRLSCAASGFTFSRYNMNWVRQAPGKGLEWVSSISTSSNYIYYADSVKGRFTFSRDNAKNSLDLQMSGLRAEDTAIYYCTRGWGPFDYWGCGTLVTVSSEPKSSDKTHTCPPCPAPEAAGGPSVFLFPPKPKDTLMISRTPEVTCVVVSVSHEDPEVKFNWYVDGVEVHNAKTKPREEQYNSTYRVVSVLTVLHQDWLNGKEYKCKVSNKALPAPIEKTISKAKGQPREPQVYTLPPSREEMTKNQVSLWCLVKGFYPSDIAVEWESNGQPENNYKTTPPVLDSDGSFFLYSKLTVDKSRWQQGNVFSCSVMHEALHNHYTQKSLSLSPGK
heavy: EVQLLESGGGLVQPGGSLRLSCAVSGIDLSNNAISWVRQAPGKGLEYVGVIGNTGDTYYADSAKGRFTISRDSSKTTLYLQMNSLRAEDTAVYFCVRGPPSYSSSVKNIWGQGTLVTVSSASTKGPSVFPLAPSSKSTSGGTAALGCLVKDYFPEPVTVSWNSGALTSGVHTFPAVLQSSGLYSLSSVVTVPSSSLGTQTYICNVNHKPSNTKVDKKVEPKSCGGGGSGGGGSDIQMTQSPSTLSASVGDRVTITCQASQSLYNNKNLAWYQQKPGCAPKLLIYYASALASGVPSRFSGSGSGTEFTLTISSLQPDDFATYYCQGEFNCNSADCNSFGGGTKVEIKGGGSGGSGGCPPCGGSGGQVQLVQSGAEVKKPGASVKVSCKASGFSLSSYAMSWVRQAPGQGLEWMGVIDSGGTTYYAQKFQGRVTMTRDTSTSTVYMELSSLRSEDTAVYYCARESYAGYDYYGHPIPYGMEPWGCGTLVTVSSEPKSSDKTHTCPPCPAPEAAGGPSVFLFPPKPKDTLMISRTPEVTCVVVSVSHEDPEVKFNWYVDGVEVHNAKTKPREEQYNSTYRVVSVLTVLHQDWLNGKEYKCKVSNKALPAPIEKTISKAKGQPREPQVYTLPPSREEMTKNQVSLSCAVKGFYPSDIAVEWESNGQPENNYKTTPPVLDSDGSFFLVSKLTVDKSRWQQGNVFSCSVMHEALHNRFTQKSLSLSPGK
light: DIQMTQSPSSVSASVGDRVTITCQSSQSVYNNNWLSWLQQKPGKAPKRLIYDASKLESGVPSRFSGSGSGTDFTLTISSVQPEDAATYYCAGGFTGNVYTFGGGTKVEIKRTVAAPSVFIFPPSDEQLKSGTASVVCLLNNFYPREAKVQWKVDNALQSGNSQESVTEQDSKDSTYSLSSTLTLSKADYEKHKVYACEVTHQGLSSPVTKSFNRGEC
notes: Chain B heavy: CALRB421 Fab heavy part, CALRB1114 spFv, Fc

Legend:
[1] = biological target: T1, wild-type calreticulin (CALRwt) expressed with MPL in engineered cancer cells (UniProt P27797 18-417, limits assumed); experiment: flow cytometry on OCI-M2 MPL CALRwt cells, 1 h at 37 C, AF647 secondary antibody, Geometric mean
T1 construct: whole, on cells; also called OCI-M2 MPL CALRwt
T1 sequence (looked up): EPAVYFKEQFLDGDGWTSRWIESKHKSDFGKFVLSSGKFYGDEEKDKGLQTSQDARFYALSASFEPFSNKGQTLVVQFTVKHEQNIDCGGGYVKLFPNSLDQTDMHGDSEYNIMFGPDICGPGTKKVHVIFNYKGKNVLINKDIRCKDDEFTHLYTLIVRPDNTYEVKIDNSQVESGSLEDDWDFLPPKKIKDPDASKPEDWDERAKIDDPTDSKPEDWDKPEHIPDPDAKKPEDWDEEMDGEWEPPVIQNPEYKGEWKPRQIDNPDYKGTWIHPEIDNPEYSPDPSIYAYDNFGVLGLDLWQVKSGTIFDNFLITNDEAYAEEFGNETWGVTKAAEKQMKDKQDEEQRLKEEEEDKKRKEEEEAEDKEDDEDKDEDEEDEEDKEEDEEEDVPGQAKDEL
Procedure: (§1) FIGS. 27A-27F depict binding of different CALRmutxCD3 antibodies to CALRmut-negative or CALRmut-positive cells. Flow cytometry was used to evaluate CALRmutxCD3 binding to CALRmut-negative and CALRmut-positive cancer cells in vitro. CALRmutxCD3 antibodies were tested on a panel of cell lines, engineered to express MPL and CALRmut, after 1 hour 37° C. incubation, with subsequent incubation with secondary AF647-labeled antibody. Geometric mean fluorescence intensity of AF647 was measured to determine antibody binding.

[2] = biological target: T2, CALRins5 (mutant calreticulin, 5 base pair insertion, Type 2) expressed with MPL on engineered cancer cells (UniProt P27797 18-417); experiment: flow cytometry on OCI-M2 MPL CALRins5 cells, 1 h at 37 C, AF647 secondary antibody, Geometric mean
T2 construct: whole, on cells; On the cell surface in complex with MPL; also called OCI-M2 MPL CALRins5
T2 sequence (looked up): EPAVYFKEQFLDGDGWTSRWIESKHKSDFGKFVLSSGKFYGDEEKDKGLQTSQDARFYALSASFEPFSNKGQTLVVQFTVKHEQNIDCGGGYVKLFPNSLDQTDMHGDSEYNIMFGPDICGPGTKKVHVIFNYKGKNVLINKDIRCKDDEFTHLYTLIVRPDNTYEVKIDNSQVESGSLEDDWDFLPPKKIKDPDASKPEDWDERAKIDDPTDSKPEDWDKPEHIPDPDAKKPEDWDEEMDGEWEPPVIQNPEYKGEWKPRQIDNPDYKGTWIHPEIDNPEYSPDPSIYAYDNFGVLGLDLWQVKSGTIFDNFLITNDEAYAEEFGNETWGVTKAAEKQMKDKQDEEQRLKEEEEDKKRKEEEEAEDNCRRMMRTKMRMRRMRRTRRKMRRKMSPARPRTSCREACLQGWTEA
Procedure: as §1

[3] = biological target: T2, CALRins5 (mutant calreticulin, 5 base …); experiment: flow cytometry on ELF-153 MPL CALRins5 cells, 1 h at 37 C, AF647 secondary antibody, Geometric mean
Procedure: as §1

Row | Binder | binding result [1] | EC50 (read off the curve) [2] [nM] | EC50 (read off the curve) [3] [nM]
1 | B1 | no binding (tested: 100 nM) | ~5 | ~1
2 | B2 | no binding (tested: 100 nM) | ~3 | ~1
3 | B3 | no binding (tested: 100 nM) | ~3 | ~1
